We go through two molecules from paper doi:10.1101/2020.03.16.993006 (bioRxiv, 2020).

Test [1] concerns the target human ferroportin (FPN), wild type, reconstituted in lipid nanodisc (human, UniProt Q9NP59). The test is described as follows: cryo-EM structure.
The target in test [2] is Rhodamine green-hepcidin (human). The test is described as follows: fluorescence polarisation. (In general: Fluorescence polarisation rises when a labelled molecule tumbles more slowly, as on binding a larger partner.)
For test [3] the target is unchanged. The test is described as follows: fluorescence polarisation. The source holds these as a separate data set.
For test [4] the target is unchanged. Kind of test: fluorescence polarisation. This is another data set of the same source.
For test [5] the target is unchanged. Kind of test: fluorescence polarisation. This is another data set of the same source.

Where two headings read alike, the source gives them in different places.

B1: Fab45D8 (Fab, V domains shown)
VH: EVQLQESGPGLAKPSQTLSLTCSVTGSSITSDYWNWIRKFPGNKLEYMGYISYSGSTYYNPSLKSQISITRDTSKNHYYLQLNSVTTEDTATYYCARQGLRNWYFDVWGTGTTVTVSS
VL: DIVLTQSPASLPVSLGQRATISCRASKSVSASAYSYMHWYQQKPGQPPKPLIYLASNLESGVPARFSGSGSGTDFTLNIHPVEEEDAATYYCQHNRELPYTFGGGTKLEIK
With B1, the binding result in test [1] is given as “binds”.

B2: human ferroportin (FPN), wild type, reconstituted in lipid nanodisc (natural protein)
chain: MTRAGDHNRQRGCCGSLADYLTSAKFLLYLGHSLSTWGDRMWHFAVSVFLVELYGNSLLLTAVYGLVVAGSVLVLGAIIGDWVDKNARLKVAQTSLVVQNVSVILCGIILMMVFLHKHELLTMYHGWVLTSCYILIITIANIANLASTATAITIQRDWIVVVAGEDRSKLANMNATIRRIDQLTNILAPMAVGQIMTFGSPVIGCGFISGWNLVSMCVEYVLLWKVYQKTPALAVKAGLKEEETELKQLNLHKDTEPKPLEGTHLMGVKDSNIHELEHEQEPTCASQMAEPFRTFRDGWVSYYNQPVFLAGMGLAFLYMTVLGFDCITTGYAYTQGLSGSILSILMGASAITGIMGTVAFTWLRRKCGLVRTGLISGLAQLSCLILCVISVFMPGSPLDLSVSPFEDIRSRFIQGESITPTKIPEITTEIYMSNGSNSANIVPETSPESVPIISVSLLFAGVIAARIGLWSFDLTVTQLLQENVIESERGIINGVQNSMNYLLDLLHFIMVILAPNPEAFGLLVLISVSFVAMGHIMYFRFAQNTLGNKLFACGPDAKEVRKENQANTSVV
For the molecule B2, the equilibrium dissociation constant (Kd) – broadly, the equilibrium constant for the complex coming apart – in test [2] came to 2.5 nM; in test [3] it was 210 nM; in test [4] it was 7.8 nM; in test [5], 7.7 nM.
